Tested on: MS2 coat protein
Test: apparent KD of MS2 coat protein; designed switch direction (-1 OFF switch, 1 ON switch): -1; higher = weaker reporter binding
How it was run: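 Designed RNA switches sharing common flanks were transcribed on Illumina chips by stalled E. coli RNA polymerase. They were titrated with SNAP-549-labelled MS2 coat protein, from 0.7 or 1.5 nM doubling to 3 µM, in Tris-HCl pH 7.5 buffer with KCl, MgCl2, BSA, DTT, tRNA and Tween-20. Titrations ran without input, with 200 uM small-molecule ligand, or with an oligonucleotide input. The apparent KD of each design is the median over its clusters, after curve-fitting of normalised cluster fluorescence.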

[1] = Eterna round: R95, input ligand: microRNA oligo, concentration not stated
[2] = input ligand: microRNA oligo, concentration not stated
[3] = Eterna round: R95, input ligand: FMN 200 uM
[4] = Eterna round: R95, input ligand: none

## UGCAUGGUAGGAUAUACGGAGCAUUAGGGUUUGUUGUGUGGACAUGAGGAUCACCCAUGUAGAAGGGCCGUGCU [JL-ex2-2.17 mat747 mod] (puzzle: Exclusion 2)
[1]
  apparent KD of MS2 coat protein: 35.5 nM

## GUAGAGUCAGGAUAUACGAAUAGAUCGAUAGAUCAAUCCAUACAUGAGGAUCACCCAUGUAGAAGGGACUCUAC [Mat - Exclusion 2 - Eli Mod - D15] (Eterna round: R97, puzzle: Exclusion 2)
Input ligand: FMN 200 uM
  apparent KD of MS2 coat protein: 26.2 nM
Input ligand: none
  apparent KD of MS2 coat protein: 18.8 nM

## GGUAGAGUGGUAGGAUAUCCGGCUGUUUCAGUCGGAGAAGGACCACAGUCACUGGGUCCAAAUAUGGGUGACCAUGUAUCUACC [pwkr exNG1 F6.6] (Eterna round: R96, puzzle: Exclusion NG 1)
Input ligand: FMN 200 uM
  apparent KD of MS2 coat protein: 984 nM
[2]
  apparent KD of MS2 coat protein: 337 nM
Input ligand: none
  apparent KD of MS2 coat protein: 371 nM

## GAGCUGUGAGGAUAUACAUGAGGAUCACCCAUGUUAAGGAAGUCGGGAUUAAUUUGGUGUAGAAGGCGCUUAUU [JR_Ex3_Sub020] (Eterna round: R97, puzzle: Exclusion 3)
Input ligand: FMN 200 uM
  apparent KD of MS2 coat protein: 44 nM
Input ligand: none
  apparent KD of MS2 coat protein: 42.5 nM

## GUAGUGUGAGGAUAUGGUAAAGAUAAGAUGAUGAAAGAACUCCAGAAGGCACAUGAGGAUCACCCAUGUAGAUU [Mat - Exclusion 4 - Mod of JL - D26] (puzzle: Exclusion 4)
[3]
  apparent KD of MS2 coat protein: 49.8 nM
[1]
  apparent KD of MS2 coat protein: 19.7 nM
[4]
  apparent KD of MS2 coat protein: 26 nM

## CAUUACUGCAAGCUAUGGGACAUGAGGAUCACCCAUGUUCGUCUUAUUGAUCUAGGUACGCUGACGUACCUAGAUCU [JL-sv1-2.21 Brourd mod] (puzzle: Sensor v3, turn-off variant 1)
[3]
  apparent KD of MS2 coat protein: 16.3 nM
[1]
  apparent KD of MS2 coat protein: 21.4 nM
[4]
  apparent KD of MS2 coat protein: 15 nM

## AAUUAGCAAGCGAGAUCUCACAUGAGGAUCACCCAUGUGCUCGUCUUAUAAGGUACUGUGACGAAAGUCACGGUACC [Mat - Sensor, turn-off var - Eli Mod - D40] (Eterna round: R97, puzzle: Sensor, turn-off variant 1)
Input ligand: FMN 200 uM
  apparent KD of MS2 coat protein: 14.8 nM
Input ligand: none
  apparent KD of MS2 coat protein: 15.8 nM

## GGGUGCAGGCUGGGAUCCUACAUGAGGAUCACCCAUGUGGUCCGGUGACGUGAGUCACCGGACUUAGCUCGUCUUGU [salish99_S_TOV1_R5_008] (Eterna round: R97, puzzle: Sensor, turn-off variant 1)
Input ligand: FMN 200 uM
  apparent KD of MS2 coat protein: 569 nM
Input ligand: none
  apparent KD of MS2 coat protein: 865 nM

## AGUCGUAGACAGGAUAUGCGGCUAAUAAAUAAAGCAGAAGGGUCUACUUGAGGAUCACCCAAGUGGGCGGUUAA [jl-ex6-4.19 ViennaUCT mod] (Eterna round: R97, puzzle: Exclusion 6)
Input ligand: FMN 200 uM
  apparent KD of MS2 coat protein: 104 nM
Input ligand: none
  apparent KD of MS2 coat protein: 20.8 nM

## AAGUCGACGGUGAGGAUAUUAGUUGAACGACAGAUUAAGAAGGUACAUGAGGAUCACCCAUGUGGGUAGCGUUG [Brourd's EX4 #78] (Eterna round: R97, puzzle: Brourd's mod of Exclusion 4)
Input ligand: FMN 200 uM
  apparent KD of MS2 coat protein: 73.2 nM
Input ligand: none
  apparent KD of MS2 coat protein: 80.9 nM

## CACCUGAAGAGAGGAUAUGAUACAUGAGGAUCACCCAUGUAAUAAAUGAGAAUUUCGAAUGUAAUUCAGAAGGCUCGAUAAGGC [Ostricism 100 - Jieux - Exclusion NG 2] (Eterna round: R96, puzzle: Exclusion NG 2)
Input ligand: FMN 200 uM
  apparent KD of MS2 coat protein: 121 nM
[2]
  apparent KD of MS2 coat protein: 45.6 nM
Input ligand: none
  apparent KD of MS2 coat protein: 55.3 nM

## CGGACACCAGUAGGAUAUGUAGGAUAUGUUGUUGAGGAUCACCCAACAAAUUAAACGACAGAAGGACAGAAGGACUGUUCUCCU [pwkr exNG2 2xFMN 1xF5.2] (Eterna round: R96, puzzle: Exclusion NG 2)
Input ligand: FMN 200 uM
  apparent KD of MS2 coat protein: 18.6 nM
[2]
  apparent KD of MS2 coat protein: 14.5 nM
Input ligand: none
  apparent KD of MS2 coat protein: 24.7 nM

## CGUGACUCAGGAUAUCGAUUAUAUCACAUGAGGAUCACCCAUGUCCAGCGAAAGCUGGAGUGAGAAGGGAGUCACG [Fiskers Ex 5 - 49] (puzzle: Exclusion 5)
[3]
  apparent KD of MS2 coat protein: 47.6 nM
[1]
  apparent KD of MS2 coat protein: 107 nM
[4]
  apparent KD of MS2 coat protein: 109 nM

## ACAUGAGGAUCACCCAUGUACAGGGUUUAGUUUCAUCGUUUGAAGGAUAUACUCCGUUAGUUGUCGUAGAAGGUCACAGUUUGG [JR_ExcNG3_Sub007] (Eterna round: R96, puzzle: Exclusion NG 3)
Input ligand: FMN 200 uM
  apparent KD of MS2 coat protein: 179 nM
[2]
  apparent KD of MS2 coat protein: 128 nM
Input ligand: none
  apparent KD of MS2 coat protein: 178 nM

## AAAAGGCAGGGAGGAUAUGCUUGCCUGGGUCGUCUUCAAACAUGAGGAUCACCCAUGUAGUCGACGCAGAAGGCCCUCAAAGAA [Mat - Exclusion NG 2 - Mod of JL - D62] (Eterna round: R96, puzzle: Exclusion NG 2)
Input ligand: FMN 200 uM
  apparent KD of MS2 coat protein: 37.7 nM
[2]
  apparent KD of MS2 coat protein: 40.8 nM
Input ligand: none
  apparent KD of MS2 coat protein: 57.2 nM

## AAUAACAAGUAAGAUCCUAACAUGAGGAUCACCCAUGUGCUCGUCUUAUAAAGUACUAUCACGAAAGUGAUAGUACA [Sensor 3, v1 - 46] (puzzle: Sensor v3, turn-off variant 1)
[3]
  apparent KD of MS2 coat protein: 36.5 nM
[1]
  apparent KD of MS2 coat protein: 153 nM
[4]
  apparent KD of MS2 coat protein: 43.1 nM

## GAUUGACAUGAGGAUCACCCAUGUGAGGAUAUCGGCUGGACCGUGUUGGCUUCCGUCUCGAGAAGGCGCAUAGG [Exclusion 1 V43] (puzzle: Exclusion 1)
[3]
  apparent KD of MS2 coat protein: 137 nM
[1]
  apparent KD of MS2 coat protein: 39.7 nM
[4]
  apparent KD of MS2 coat protein: 44.4 nM

## AGCUAACGAACAGGAUAUCCAAAGCGAUAGCAGGGAGAAGGGUUCAGAACUUGAGGAUCACCCAAGUGGGCUGAGCUCGGGAAA [Mutated MS2 EX1.3] (Eterna round: R96, puzzle: Exclusion NG 1)
Input ligand: FMN 200 uM
  apparent KD of MS2 coat protein: 12 nM
[2]
  apparent KD of MS2 coat protein: 12.6 nM
Input ligand: none
  apparent KD of MS2 coat protein: 20.9 nM

## AUCAGCUCGUGAGGAUAUAUUAACAUGAGGAUCACCCAUGUAAGAUCAGGCUUCGGCCAAUGUUAAUAGAAGGCACGAGCUGAU [ENG2/12-A2] (Eterna round: R96, puzzle: Exclusion NG 2)
Input ligand: FMN 200 uM
  apparent KD of MS2 coat protein: 239 nM
[2]
  apparent KD of MS2 coat protein: 56.3 nM
Input ligand: none
  apparent KD of MS2 coat protein: 170 nM

## CUGAUGUGAGGAUAUGUGAUCUGCCUUCUAUGUAGAUGAUCACAGAAGGCACAUGAGGAUCACCCAUGUAGAUC [Ex4 - 3 - 26] (Eterna round: R96, puzzle: Exclusion 4)
Input ligand: FMN 200 uM
  apparent KD of MS2 coat protein: 129 nM
[2]
  apparent KD of MS2 coat protein: 57.3 nM
Input ligand: none
  apparent KD of MS2 coat protein: 99.4 nM

## GAAAAGGGAGGAUAUACAAGAAGAAAAGAAAAGAAAAGAAAACAUGAGGAUCACCCAUGUAGAAGGCCCAAAAG [Default title] (puzzle: Exclusion 2)
[3]
  apparent KD of MS2 coat protein: 22.6 nM
[1]
  apparent KD of MS2 coat protein: 18.7 nM
[4]
  apparent KD of MS2 coat protein: 23.8 nM

## GCCUCACAUGAGGAUCACCCAUGUCAGGAUAUAGGAGACGGUAGCUUUGCUGCCAUCGCUAGAAGGGACUGGCU (puzzle: Exclusion 1)
[1]
  apparent KD of MS2 coat protein: 65.6 nM

## CCUCUACAUGAGGAUCACCCAUGUGAGGAUAUAAGAUUGCGAAUUCCGCACUACGGUCUUAGAAGGCGCGUGGA [Riarve] (Eterna round: R96, puzzle: Exclusion 1)
Input ligand: FMN 200 uM
  apparent KD of MS2 coat protein: 31.3 nM
[2]
  apparent KD of MS2 coat protein: 14.8 nM
Input ligand: none
  apparent KD of MS2 coat protein: 20.3 nM

## UGAUUGUUUACCAGGUUAUACAUGAGGAUCACCCAUGUAGAUCCUACGUGCGCGUUGUACCGCUCGUCUUAUUCCCA [Sensor-V1 #78] (Eterna round: R97, puzzle: Sensor, turn-off variant 1)
Input ligand: FMN 200 uM
  apparent KD of MS2 coat protein: 18.3 nM
Input ligand: none
  apparent KD of MS2 coat protein: 18.9 nM

## CUUUUGUGAGGAUAUCAGUGGUAAUACAAUAGUAUUACUACUGAGAAGGCACAUGAGGAUCACCCAUGUUCCUC [Ex4 344 Omei mod 11] (puzzle: Exclusion 4)
[1]
  apparent KD of MS2 coat protein: 43.1 nM

## ACAUGAGGAUCACCCAUGUAAACAUGAUGGCUGAUGUAGAGCUAGGAUAUGAGUGGCUUUCUAUCUCAGAAGGAGCUUGACUGG [Deportation 43 - Jieux - Exclusion NG 3] (Eterna round: R96, puzzle: Exclusion NG 3)
Input ligand: FMN 200 uM
  apparent KD of MS2 coat protein: 30.8 nM
[2]
  apparent KD of MS2 coat protein: 22.8 nM
Input ligand: none
  apparent KD of MS2 coat protein: 35.7 nM

## GCGGAAAACUUAGGAUAUCAGGGCUGCACAUGAGGAUCACCCAUGUGAUAGCUCUAACGCGGUCCUGAGAAGGGAGAGCCCGGA [Rarasoa] (Eterna round: R96, puzzle: Exclusion NG 2)
Input ligand: FMN 200 uM
  apparent KD of MS2 coat protein: 94.2 nM
[2]
  apparent KD of MS2 coat protein: 43.8 nM
Input ligand: none
  apparent KD of MS2 coat protein: 44.7 nM

## GCAGCAUAGUUUACUAACUGUUACAUGAGGAUCACCCAUGUCUAGGAUAUGGUCUGGAUUACAGGCCAGAAGGAGAAAAGCUGC [Eli exng3 - 036] (Eterna round: R96, puzzle: Exclusion NG 3)
Input ligand: FMN 200 uM
  apparent KD of MS2 coat protein: 15.3 nM
[2]
  apparent KD of MS2 coat protein: 13 nM
Input ligand: none
  apparent KD of MS2 coat protein: 16.8 nM

## GAAAAGUGAGGAUAUGCUCGAUCCUGGCACCAAGUGAAGUCACUUGAGGAUCACCCAAGUAGAAGGCACAUAAA [Tiederes] (Eterna round: R97, puzzle: Exclusion 2)
Input ligand: FMN 200 uM
  apparent KD of MS2 coat protein: 206 nM
Input ligand: none
  apparent KD of MS2 coat protein: 55.3 nM

## AGGUGUAGAGGAUAUUUAUUCUUCCACAUGAGGAUCACCCAUGUCCUGGUCACCAAGGACGGAGAAGGCUACACCA [Omei Ex5 D24] (Eterna round: R97, puzzle: Exclusion 5)
Input ligand: FMN 200 uM
  apparent KD of MS2 coat protein: 57.4 nM
Input ligand: none
  apparent KD of MS2 coat protein: 63.5 nM

## GCCGAUUAAGUCAGGAUAUACCUAUGGAUACAUAGGUAGAAGGGACAUGAGGAUCACCCAUGUUCCUCAGCGGC [Fiskers BMX 4 - 14] (puzzle: Brourd's mod of Exclusion 4)
[1]
  apparent KD of MS2 coat protein: 14.5 nM

## AUCCUGCGAGGAUAUACAUAAUUUUUUUCGUUUUGACUCGAACAUGAGGAUCACCCAUGUAGAAGGUGCUUCAC [JR_Ex2_Sub027] (Eterna round: R97, puzzle: Exclusion 2)
Input ligand: FMN 200 uM
  apparent KD of MS2 coat protein: 122 nM
Input ligand: none
  apparent KD of MS2 coat protein: 94.8 nM

## UCUCGAAGGCAAGGAUAUCCUACAUUGUUCUGGCCCGGGCAUGCUACAUGAGGAUCACCCAUGUGGGAGAAGGUGCGCCACGGC [Design 29] (Eterna round: R96, puzzle: Exclusion NG 2)
Input ligand: FMN 200 uM
  apparent KD of MS2 coat protein: 31.6 nM
[2]
  apparent KD of MS2 coat protein: 32.9 nM
Input ligand: none
  apparent KD of MS2 coat protein: 43.1 nM

Source: the supplement of paper PMC9170038
